Each block holds one molecule with its values, some of them ahead of it.
Key:
[1] = target: talin R3-IVVI domain
[2] = target: talin R3-IVVI domain; remark: listed apart in the source
[3] = target: talin R3-IVVI domain; remark: listed apart in the source
[4] = target: talin R3-IVVI domain; remark: listed apart in the source

intersection force of R3-IVVI, chevron plot, with Hsp40; control 9.7 pN [1]: 7.8 pN
Molecule: Hsp40, human recombinant protein (from UniProt P25685 1-340) (natural protein)

intersection force (equal unfolding and refolding rates) of R3-IVVI, force-clamp chevron plot, with 1 µM DnaJ; control 9.7 pN [2]: 7.9 pN
Molecule: DnaJ (from UniProt P08622 1-376) (natural protein)

half-point force of R3-IVVI with Hsp70 [3]: 7.2 pN
half-point force of R3-IVVI with Hsp70 and its inhibitor pifithrin-µ (PFT-µ, binds the substrate-binding domain of Hsp70) [3]: 9.5 pN
intersection force of R3-IVVI, chevron plot, with Hsp70; control 9.7 pN [1]: 7.2 pN
Molecule: Hsp70, human recombinant protein (from UniProt P0DMV8 1-641) (natural protein)

intersection force (equal unfolding and refolding rates) of R3-IVVI, force-clamp chevron plot, with 3 µM apo-DnaK; control 9.7 pN [2]: 6 pN
unfolding force (confirmed as intersection force of the chevron plot) of R3-IVVI with DnaK + DnaJ + ADP (DnaKJ-ADP) [4]: 6.3 pN
unfolding force (confirmed as intersection force of the chevron plot) of R3-IVVI with DnaK and ATP; ~6 pN with apo-DnaK [4]: 7.6 pN
Molecule: DnaK (from UniProt P0A6Y8 1-638) (natural protein)

intersection force (equal unfolding and refolding rates) of R3-IVVI, force-clamp chevron plot, with 60 µM DsbA; control 9.7 pN [2]: 14.9 pN
B1: oxidized DsbA (enzyme)
chain: AQYEDGKQYTTLEKPVAGAPQVLEFFSFFCPHCYQFEEVLHISDNVKKKLPEGVKMTKYHVNFMGGDLGKDLTQAWAVAMALGVEDKVTVPLFEGVQKTQTIRSASDIRDVFINAGIKGEEYDAAWNSFVVKSLVAQQEKAAADVQLRGVPAMFVNGKYQLNPQGMDTSNMDVFVQQYADTVKYLSEKK
modifications: oxidized (0.3% H2O2 overnight)

From article PMC8979947
